{"source": "paper PMC9780223", "about": "“Structural insights into the covalent regulation of PAPP-A activity by proMBP and STC2” (Cell Discovery, 2022)", "binders": {"B1": {"name": "proform of eosinophil major basic protein (proMBP), endogenous, from pregnant human plasma (natural protein, human (endogenous in pregnant plasma), UniProt P13727 17-222, looked up)", "chain": "LHLRSETSTFETPLGAKTLPEDEETPEQEMEETPCRELEEEEEWGSGSEDASKKDGAVESISVPDMVDKNLTCPEEEDTVKVVGIPGCQTCRYLLVRSLQTFSQAWFTCRRCYRGNLVSIHNFNINYRIQCSVSALNQGQVWIGGRITGSGRCRRFQWVDGSRWNFAYWAAHQPWSRGGHCVALCTRGGHWRRAHCLRRLPFICSY", "notes": "proform of eosinophil major basic protein, human, encoded by PRG2; only residues 88-222 traced in the map, residues 1-87 invisible; Secreted proform; the signal peptide should be absent (surmise); Model built on PDB 1H8U; also called PM; PRG2; source: purified from pregnant human plasma as the PAPP-A·proMBP complex (PEG6000, SOURCE-15Q, MonoS, Superose-6)"}, "B2": {"name": "recombinant proMBP (modulator protein) (natural protein, UniProt P13727 17-222, looked up)", "chain": "B1 chain", "notes": "proform of eosinophil major basic protein, encoded by PRG2; construct not described; source: co-expressed with PAPP-A for the cleavage assay"}, "B3": {"name": "pregnancy-associated plasma protein A (PAPP-A), endogenous, from pregnant human plasma (enzyme, human (endogenous in pregnant plasma), UniProt Q13219 82-1627, looked up)", "chain": "EARGATEEPSPPSRALYFSGRGEQLRLRADLELPRDAFTLQVWLRAEGGQRSPAVITGLYDKCSYISRDRGWVVGIHTISDQDNKDPRYFFSLKTDRARQVTTINAHRSYLPGQWVYLAATYDGQFMKLYVNGAQVATSGEQVGGIFSPLTQKCKVLMLGGSALNHNYRGYIEHFSLWKVARTQREILSDMETHGAHTALPQLLLQENWDNVKHAWSPMKDGSSPKVEFSNAHGFLLDTSLEPPLCGQTLCDNTEVIASYNQLSSFRQPKVVRYRVVNLYEDDHKNPTVTREQVDFQHHQLAEAFKQYNISWELDVLEVSNSSLRRRLILANCDISKIGDENCDPECNHTLTGHDGGDCRHLRHPAFVKKQHNGVCDMDCNYERFNFDGGECCDPEITNVTQTCFDPDSPHRAYLDVNELKNILKLDGSTHLNIFFAKSSEEELAGVATWPWDKEALMHLGGIVLNPSFYGMPGHTHTMIHEIGHSLGLYHVFRGISEIQSCSDPCMETEPSFETGDLCNDTNPAPKHKSCGDPGPGNDTCGFHSFFNTPYNNFMSYADDDCTDSFTPNQVARMHCYLDLVYQGWQPSRKPAPVALAPQVLGHTTDSVTLEWFPPIDGHFFERELGSACHLCLEGRILVQYASNASSPMPCSPSGHWSPREAEGHPDVEQPCKSSVRTWSPNSAVNPHTVPPACPEPQGCYLELEFLYPLVPESLTIWVTFVSTDWDSSGAVNDIKLLAVSGKNISLGPQNVFCDVPLTIRLWDVGEEVYGIQIYTLDEHLEIDAAMLTSTADTPLCLQCKPLKYKVVRDPPLQMDVASILHLNRKFVDMDLNLGSVYQYWVITISGTEESEPSPAVTYIHGSGYCGDGIIQKDQGEQCDDMNKINGDGCSLFCRQEVSFNCIDEPSRCYFHDGDGVCEEFEQKTSIKDCGVYTPQGFLDQWASNASVSHQDQQCPGWVIIGQPAASQVCRTKVIDLSEGISQHAWYPCTISYPYSQLAQTTFWLRAYFSQPMVAAAVIVHLVTDGTYYGDQKQETISVQLLDTKDQSHDLGLHVLSCRNNPLIIPVVHDLSQPFYHSQAVRVSFSSPLVAISGVALRSFDNFDPVTLSSCQRGETYSPAEQSCVHFACEKTDCPELAVENASLNCSSSDRYHGAQCTVSCRTGYVLQIRRDDELIKSQTGPSVTVTCTEGKWNKQVACEPVDCSIPDHHQVYAASFSCPEGTTFGSQCSFQCRHPAQLKGNNSLLTCMEDGLWSFPEALCELMCLAPPPVPNADLQTARCRENKHKVGSFCKYKCKPGYHVPGSSRKSKKRAFKTQCTQDGSWQEGACVPVTCDPPPPKFHGLYQCTNGFQFNSECRIKCEDSDASQGLGSNVIHCRKDGTWNGSFHVCQEMQGQCSVPNELNSNLKLQCPDGYAIGSECATSCLDHNSESIILPMNVTVRDIPHWLNPTRVERVVCTAGLKWYPHPALIHCVKGCEPFMGDNYCDAINNRAFCNYDGGDCCTSTVKTKKVTPFPMSCDLQGDCACRDPQAQEHSRKDLRGYSHG", "modifications": "glycosylation sites assigned in the density (positions not given)", "notes": "pregnancy-associated plasma protein A, human, full-length mature PAPP-A, Arg1-Gly1547; numbers count on: the mature protein; source: purified from pregnant human plasma as the PAPP-A·proMBP complex (PEG6000, SOURCE-15Q, MonoS, Superose-6)"}}, "key": {"[1]": {"target": "B3", "assay": "cryo-EM structure; PAPP-A·proMBP complex purified from pregnant human plasma, 0.2 mg/mL, in PBS pH 7.4; 2:2 map with C2 symmetry and half map after symmetry expansion", "details": "both partners purified"}, "[2]": {"target": "purified recombinant PAPP-A free of STC2 (apo PAPP-A) (human, UniProt Q13219 82-1627, fluorescently labeled with Protein Labeling Kit RED-NHS (in MST))", "assay": "MST; RED-NHS labeled PAPP-A (24 nM, mixed with an equal volume of ligand), ligand serially diluted; PBS with 0.05% Tween-20, room temperature, 30 min; 1:1 binding mode; n = 3", "details": "both partners purified"}, "[3]": {"target": "the molecule itself", "assay": "cryo-EM structure; PAPP-A·proMBP complex purified from pregnant human plasma, 0.2 mg/mL, in PBS pH 7.4; 2:2 map with C2 symmetry and half map after symmetry expansion"}}, "data": [{"binder": "B1", "values": [{"measurement": "binding result", "setting": "[1]", "value": "binds"}]}, {"binder": "B2", "values": [{"measurement": "Kd", "setting": "[2]", "value": "~6.15", "unit": "µM"}]}, {"binder": "B3", "values": [{"measurement": "stoichiometry N", "setting": "[3]", "value": 2}]}]}
